Experimental data reported in PMC1914068.

Molecular target: LexA-TAP-Vpr (yeast two-hybrid bait) (HIV-1) (UniProt P05928)
Experiment: two-hybrid; LexA baits (pEG202) and B42 preys (pJG4-5) in S. cerevisiae EGY48; β-galactosidase activity by the o-nitrophenyl-β-D-galactopyranoside method

## Vpr as yeast two-hybrid fusion (LexA-Vpr bait and B42-Vpr prey) (from UniProt P05928 1-96) (natural protein)
  fold weaker than dimerization of wild-type Vpr (β-galactosidase activity): 3 fold
